Data from paper PMC8769072, “Proteome‐scale mapping of binding sites in the unstructured regions of the human proteome” (Molecular Systems Biology, 2022).
Each block holds one binder with its values, some of them ahead of it. Where no end group is shown, it is not given here. [ ]: non-standard residue; d: D form. pY = N[C@@H](Cc1ccc(OP(=O)(O)O)cc1)C(=O)O; pT = C[C@@H](OP(=O)(O)O)[C@H](N)C(=O)O; pS = N[C@@H](COP(=O)(O)O)C(=O)O

Key:
[1] = molecular target: KPNA4 ARM (importin subunit alpha-3, armadillo repeat domain) (human) (UniProt O00629); test: fluorescence polarisation; competition: unlabelled peptide in serial dilution against KPNA4 ARM (master mix at four times the KD) with the probe FITC-NCOR2(1307-1322), probe of the minor pocket; 50 mM KPO4 pH 7.5; Ki calculated from IC50
KPNA4 ARM (importin subunit alpha-3, armadillo repeat domain) (human), sequence (O00629 whole entry, the tested form may be a part): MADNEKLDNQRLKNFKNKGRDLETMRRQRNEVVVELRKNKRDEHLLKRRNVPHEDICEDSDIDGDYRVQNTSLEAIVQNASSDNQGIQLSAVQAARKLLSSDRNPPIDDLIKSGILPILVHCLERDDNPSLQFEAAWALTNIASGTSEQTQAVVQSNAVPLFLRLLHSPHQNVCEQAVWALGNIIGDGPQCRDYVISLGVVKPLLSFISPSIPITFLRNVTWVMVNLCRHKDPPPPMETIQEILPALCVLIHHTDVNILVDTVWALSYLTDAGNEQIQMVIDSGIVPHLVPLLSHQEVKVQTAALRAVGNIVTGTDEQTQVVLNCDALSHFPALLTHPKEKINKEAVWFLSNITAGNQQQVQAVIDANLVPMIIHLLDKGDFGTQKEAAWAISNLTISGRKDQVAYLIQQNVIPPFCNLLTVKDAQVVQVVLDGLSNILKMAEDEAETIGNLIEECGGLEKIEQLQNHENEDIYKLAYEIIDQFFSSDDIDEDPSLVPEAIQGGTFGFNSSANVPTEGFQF

[2] = molecular target: CLTC (clathrin heavy chain 1, Clathrin-propeller domain) (human) (UniProt Q00610); test: fluorescence polarisation; competition: unlabelled peptide in serial dilution against the protein domain (master mix at four times the KD) with its FITC-labelled probe peptide; 50 mM KPO4 or NaPO4 pH 7.5; Ki calculated from IC50
[3] = molecular target: KEAP1 Kelch (kelch-like ECH-associated protein 1, Kelch domain) (human) (UniProt Q14145); test: as above
KEAP1 Kelch (kelch-like ECH-associated protein 1, Kelch domain) (human), sequence (Q14145 whole entry, the tested form may be a part): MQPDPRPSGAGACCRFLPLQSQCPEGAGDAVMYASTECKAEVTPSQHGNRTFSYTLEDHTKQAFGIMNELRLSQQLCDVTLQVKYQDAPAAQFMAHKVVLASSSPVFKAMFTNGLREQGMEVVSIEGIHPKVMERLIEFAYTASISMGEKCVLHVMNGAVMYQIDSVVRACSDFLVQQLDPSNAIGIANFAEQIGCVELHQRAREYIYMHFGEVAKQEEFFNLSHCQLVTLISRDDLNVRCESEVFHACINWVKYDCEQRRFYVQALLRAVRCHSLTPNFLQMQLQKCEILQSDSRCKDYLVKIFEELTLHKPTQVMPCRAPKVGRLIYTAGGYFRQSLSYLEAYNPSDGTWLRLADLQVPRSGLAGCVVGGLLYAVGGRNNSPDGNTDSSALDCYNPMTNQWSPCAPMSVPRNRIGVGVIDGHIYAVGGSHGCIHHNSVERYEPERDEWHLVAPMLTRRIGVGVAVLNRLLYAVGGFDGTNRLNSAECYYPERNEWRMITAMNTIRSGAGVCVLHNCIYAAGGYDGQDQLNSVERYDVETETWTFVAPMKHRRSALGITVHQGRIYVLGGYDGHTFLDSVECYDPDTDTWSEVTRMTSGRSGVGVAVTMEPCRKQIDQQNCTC

[4] = molecular target: TLN1 PTB (talin-1, phosphotyrosine binding-like domain) (human) (UniProt Q9Y490); test: as above
TLN1 PTB (talin-1, phosphotyrosine binding-like domain) (human), sequence (Q9Y490 whole entry, the tested form may be a part): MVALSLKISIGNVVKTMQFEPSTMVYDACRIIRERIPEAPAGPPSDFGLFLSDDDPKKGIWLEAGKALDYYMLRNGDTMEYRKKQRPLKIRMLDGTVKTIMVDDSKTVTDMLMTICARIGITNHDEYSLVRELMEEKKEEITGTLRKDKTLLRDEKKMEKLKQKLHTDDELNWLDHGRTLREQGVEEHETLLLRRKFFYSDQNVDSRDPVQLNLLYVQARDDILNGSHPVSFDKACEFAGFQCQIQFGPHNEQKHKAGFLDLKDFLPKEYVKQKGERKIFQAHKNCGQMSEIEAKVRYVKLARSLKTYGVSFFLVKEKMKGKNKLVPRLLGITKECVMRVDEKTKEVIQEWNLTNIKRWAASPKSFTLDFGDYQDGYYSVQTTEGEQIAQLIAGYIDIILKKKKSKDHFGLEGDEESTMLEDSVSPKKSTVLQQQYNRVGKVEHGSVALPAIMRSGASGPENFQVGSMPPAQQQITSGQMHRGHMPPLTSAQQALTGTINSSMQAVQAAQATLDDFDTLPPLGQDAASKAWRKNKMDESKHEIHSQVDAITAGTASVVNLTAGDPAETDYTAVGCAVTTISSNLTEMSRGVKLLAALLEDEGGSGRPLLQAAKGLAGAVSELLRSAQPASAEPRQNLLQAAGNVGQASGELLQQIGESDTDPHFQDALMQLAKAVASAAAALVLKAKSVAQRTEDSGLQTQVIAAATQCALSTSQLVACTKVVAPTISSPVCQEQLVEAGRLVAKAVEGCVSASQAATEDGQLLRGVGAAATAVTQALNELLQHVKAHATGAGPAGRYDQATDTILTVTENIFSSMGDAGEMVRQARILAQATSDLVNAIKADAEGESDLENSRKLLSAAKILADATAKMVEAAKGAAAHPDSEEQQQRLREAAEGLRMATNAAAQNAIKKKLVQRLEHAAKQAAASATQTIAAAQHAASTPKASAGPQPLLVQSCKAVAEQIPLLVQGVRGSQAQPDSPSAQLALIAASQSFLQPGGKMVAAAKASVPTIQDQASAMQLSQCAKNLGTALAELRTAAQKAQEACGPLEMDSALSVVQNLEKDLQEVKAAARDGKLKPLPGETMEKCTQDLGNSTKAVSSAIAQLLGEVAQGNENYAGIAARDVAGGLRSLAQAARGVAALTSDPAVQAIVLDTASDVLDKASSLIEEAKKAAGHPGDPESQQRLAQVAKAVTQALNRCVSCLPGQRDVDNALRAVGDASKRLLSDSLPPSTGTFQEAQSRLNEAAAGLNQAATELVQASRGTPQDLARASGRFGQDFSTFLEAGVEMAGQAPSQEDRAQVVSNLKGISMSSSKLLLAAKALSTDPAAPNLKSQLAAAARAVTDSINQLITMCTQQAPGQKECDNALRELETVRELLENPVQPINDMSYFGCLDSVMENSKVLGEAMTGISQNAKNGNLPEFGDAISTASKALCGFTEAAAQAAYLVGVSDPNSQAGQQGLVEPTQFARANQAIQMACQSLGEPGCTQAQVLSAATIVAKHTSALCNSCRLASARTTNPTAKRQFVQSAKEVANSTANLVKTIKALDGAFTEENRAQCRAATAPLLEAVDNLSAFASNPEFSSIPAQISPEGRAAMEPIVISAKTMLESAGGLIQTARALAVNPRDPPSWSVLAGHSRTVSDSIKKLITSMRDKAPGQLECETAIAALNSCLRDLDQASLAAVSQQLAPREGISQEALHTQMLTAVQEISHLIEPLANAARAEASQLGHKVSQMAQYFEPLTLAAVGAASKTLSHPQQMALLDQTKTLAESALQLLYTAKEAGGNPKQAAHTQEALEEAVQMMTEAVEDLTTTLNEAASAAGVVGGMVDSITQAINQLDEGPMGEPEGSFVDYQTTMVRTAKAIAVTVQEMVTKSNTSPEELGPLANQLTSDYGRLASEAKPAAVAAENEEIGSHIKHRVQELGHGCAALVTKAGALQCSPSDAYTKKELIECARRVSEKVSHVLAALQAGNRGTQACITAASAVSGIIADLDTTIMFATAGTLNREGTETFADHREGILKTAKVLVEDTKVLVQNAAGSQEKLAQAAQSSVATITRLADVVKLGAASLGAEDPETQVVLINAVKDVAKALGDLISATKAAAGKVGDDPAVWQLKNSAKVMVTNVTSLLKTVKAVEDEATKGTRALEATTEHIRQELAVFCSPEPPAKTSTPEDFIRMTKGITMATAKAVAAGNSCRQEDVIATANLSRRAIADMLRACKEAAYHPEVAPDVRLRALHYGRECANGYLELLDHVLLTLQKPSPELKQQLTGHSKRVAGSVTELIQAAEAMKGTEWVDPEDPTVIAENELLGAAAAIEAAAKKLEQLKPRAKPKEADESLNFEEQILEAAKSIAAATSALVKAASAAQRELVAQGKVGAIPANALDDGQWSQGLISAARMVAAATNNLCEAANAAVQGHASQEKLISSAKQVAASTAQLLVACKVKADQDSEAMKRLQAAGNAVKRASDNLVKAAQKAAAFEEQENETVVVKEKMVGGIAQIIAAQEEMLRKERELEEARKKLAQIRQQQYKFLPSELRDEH

[5] = molecular target: KPNA4 ARM (importin subunit alpha-3, armadillo repeat domain) (human) (UniProt O00629); test: fluorescence polarisation; competition: unlabelled peptide in serial dilution against KPNA4 ARM (master mix at four times the KD) with the probe FITC-Myc(320-328), probe of the major pocket; 50 mM KPO4 pH 7.5; Ki calculated from IC50
[6] = molecular target: KPNB1 HEAT (importin subunit beta-1, HEAT repeat) (human) (UniProt Q14974); test: fluorescence polarisation; competition: unlabelled peptide in serial dilution against the protein domain (master mix at four times the KD) with its FITC-labelled probe peptide; 50 mM KPO4 or NaPO4 pH 7.5; Ki calculated from IC50
KPNB1 HEAT (importin subunit beta-1, HEAT repeat) (human), sequence (Q14974 whole entry, the tested form may be a part): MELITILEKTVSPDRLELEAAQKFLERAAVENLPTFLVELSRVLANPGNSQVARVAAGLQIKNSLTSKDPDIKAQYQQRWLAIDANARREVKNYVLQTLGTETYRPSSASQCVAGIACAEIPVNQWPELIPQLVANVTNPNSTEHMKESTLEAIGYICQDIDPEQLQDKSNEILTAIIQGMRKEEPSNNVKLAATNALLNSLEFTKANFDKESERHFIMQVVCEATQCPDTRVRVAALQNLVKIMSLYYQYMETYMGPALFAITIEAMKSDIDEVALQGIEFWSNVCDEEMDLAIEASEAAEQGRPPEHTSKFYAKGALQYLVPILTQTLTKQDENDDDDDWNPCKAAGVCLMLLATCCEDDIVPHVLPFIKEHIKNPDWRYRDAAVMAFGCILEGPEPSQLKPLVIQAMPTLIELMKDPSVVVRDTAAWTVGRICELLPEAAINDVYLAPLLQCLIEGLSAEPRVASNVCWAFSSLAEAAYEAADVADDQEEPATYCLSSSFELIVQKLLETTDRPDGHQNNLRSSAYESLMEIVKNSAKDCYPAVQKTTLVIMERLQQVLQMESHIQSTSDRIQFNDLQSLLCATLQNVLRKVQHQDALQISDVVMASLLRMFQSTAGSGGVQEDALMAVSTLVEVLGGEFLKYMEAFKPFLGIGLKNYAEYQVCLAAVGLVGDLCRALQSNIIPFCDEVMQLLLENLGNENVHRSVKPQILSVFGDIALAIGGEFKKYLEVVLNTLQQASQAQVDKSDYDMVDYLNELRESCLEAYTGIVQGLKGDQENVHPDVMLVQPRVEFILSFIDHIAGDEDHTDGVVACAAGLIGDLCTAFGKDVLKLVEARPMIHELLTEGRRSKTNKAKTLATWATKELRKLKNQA

[7] = molecular target: MDM2 SWIB (E3 ubiquitin-protein ligase MDM2, SWIB domain) (human) (UniProt Q00987); test: as above
MDM2 SWIB (E3 ubiquitin-protein ligase MDM2, SWIB domain) (human), sequence (Q00987 whole entry, the tested form may be a part): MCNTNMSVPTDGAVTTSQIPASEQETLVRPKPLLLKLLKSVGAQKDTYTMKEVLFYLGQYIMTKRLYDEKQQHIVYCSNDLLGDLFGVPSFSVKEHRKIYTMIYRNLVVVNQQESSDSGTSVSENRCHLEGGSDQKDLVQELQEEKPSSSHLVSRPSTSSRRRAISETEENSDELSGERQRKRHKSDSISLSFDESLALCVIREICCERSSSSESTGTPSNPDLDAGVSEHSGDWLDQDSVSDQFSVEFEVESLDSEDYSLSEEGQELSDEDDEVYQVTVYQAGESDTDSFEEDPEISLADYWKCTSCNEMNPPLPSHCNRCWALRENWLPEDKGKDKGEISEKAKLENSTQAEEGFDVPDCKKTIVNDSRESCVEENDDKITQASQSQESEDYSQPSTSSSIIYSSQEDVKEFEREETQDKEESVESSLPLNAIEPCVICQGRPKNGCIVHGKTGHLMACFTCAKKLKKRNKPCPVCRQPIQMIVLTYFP

B1: HNRNPC 95-110 peptide (peptide)
peptide: AGVKRSAAEMYGSVTE-NH2
IC50 [1]: 0.5 µM
Ki [1]: 0.093 µM

B2: GTSE1 645-660 peptide (peptide)
peptide: Ac-LIDLPLIDFCDTPEAHY
IC50 [2]: 97 µM
Ki [2]: 39 µM

B3: NCOR2 1307-1322 peptide, unlabelled (peptide)
peptide: PKRTYDMMEGRVGRAI-NH2
IC50 [1]: 0.12 µM

B8: NCOR1 1240-1255 peptide, pY1247 (peptide)
peptide: Ac-EISLKRS[pY]ESVEGNIK-NH2
SMILES: CC[C@H](C)[C@H](NC(=O)[C@H](CC(N)=O)NC(=O)CNC(=O)[C@H](CCC(=O)O)NC(=O)[C@@H](NC(=O)[C@H](CO)NC(=O)[C@H](CCC(=O)O)NC(=O)[C@H](Cc1ccc(OP(=O)(O)O)cc1)NC(=O)[C@H](CO)NC(=O)[C@H](CCCNC(=N)N)NC(=O)[C@H](CCCCN)NC(=O)[C@H](CC(C)C)NC(=O)[C@H](CO)NC(=O)[C@@H](NC(=O)[C@H](CCC(=O)O)NC(C)=O)[C@@H](C)CC)C(C)C)C(=O)N[C@@H](CCCCN)C(N)=O
IC50 [1]: 21 µM
Ki [1]: 6.8 µM

B11: DMTF1 44-59 peptide (peptide)
peptide: EDSIEPPHKRLCLSSE-NH2
IC50 [5]: 0.13 µM
Ki [5]: 0.075 µM

B12: CTDSPL2 64-79 peptide (peptide)
peptide: ERENPSKRSRIERDID-NH2
IC50 [5]: 1.9 µM
Ki [5]: 1.2 µM

B14: NCOR1 1240-1255 peptide, unphosphorylated (peptide)
peptide: Ac-EISLKRSYESVEGNIK-NH2
IC50 [1]: 11 µM
Ki [1]: 3.6 µM

B15: KLHL24 335-350 peptide (peptide)
peptide: YDPVTGEWKSLAKLPE-NH2
IC50 [3]: 80 µM
Ki [3]: 19 µM

B16: HJURP 675-690 peptide (peptide)
peptide: DHQFPAKRPRLSEPQG-NH2
IC50 [5]: 0.076 µM
Ki [5]: 0.038 µM
IC50 [1]: 170 µM
Ki [1]: 63 µM

B21: KIAA1671 600-615 peptide (peptide)
peptide: TPEDDRSFQTVWATVF
IC50 [7]: 73 µM
Ki [7]: 1.76 µM

B22: NFE2L2 77-91 peptide with an extra N-terminal Y, E79K (peptide)
peptide: Ac-YDEKTGEFLPIQPAQH-NH2
IC50 [3]: 1650 µM
Ki [3]: 397 µM

B25: ADNP 711-726 peptide (peptide)
peptide: SLAPVKRTYEQMEFPL-NH2
IC50 [1]: 1.3 µM
Ki [1]: 0.38 µM

B26: GTSE1 645-660 peptide, phosphothreonine (peptide)
peptide: Ac-LIDLPLIDFCD[pT]PEAHY
IC50 [2]: 87 µM
Ki [2]: 34 µM

B27: NCOR1 1240-1255 peptide, pS1242 (peptide)
peptide: Ac-EI[pS]LKRSYESVEGNIK-NH2
SMILES: CC[C@H](C)[C@H](NC(=O)[C@H](CC(N)=O)NC(=O)CNC(=O)[C@H](CCC(=O)O)NC(=O)[C@@H](NC(=O)[C@H](CO)NC(=O)[C@H](CCC(=O)O)NC(=O)[C@H](Cc1ccc(O)cc1)NC(=O)[C@H](CO)NC(=O)[C@H](CCCNC(=N)N)NC(=O)[C@H](CCCCN)NC(=O)[C@H](CC(C)C)NC(=O)[C@H](COP(=O)(O)O)NC(=O)[C@@H](NC(=O)[C@H](CCC(=O)O)NC(C)=O)[C@@H](C)CC)C(C)C)C(=O)N[C@@H](CCCCN)C(N)=O
IC50 [1]: 31 µM
Ki [1]: 10 µM

B28: MKL2 572-587 peptide (peptide)
peptide: ELKRKLEQEQKLVEVL-NH2
IC50 [1]: 36 µM
Ki [1]: 13 µM

B30: NCOR1 1240-1255 peptide, pS1246 (peptide)
peptide: Ac-EISLKR[pS]YESVEGNIK-NH2
SMILES: CC[C@H](C)[C@H](NC(=O)[C@H](CC(N)=O)NC(=O)CNC(=O)[C@H](CCC(=O)O)NC(=O)[C@@H](NC(=O)[C@H](CO)NC(=O)[C@H](CCC(=O)O)NC(=O)[C@H](Cc1ccc(O)cc1)NC(=O)[C@H](COP(=O)(O)O)NC(=O)[C@H](CCCNC(=N)N)NC(=O)[C@H](CCCCN)NC(=O)[C@H](CC(C)C)NC(=O)[C@H](CO)NC(=O)[C@@H](NC(=O)[C@H](CCC(=O)O)NC(C)=O)[C@@H](C)CC)C(C)C)C(=O)N[C@@H](CCCCN)C(N)=O
IC50 [1]: 240 µM
Ki [1]: 81 µM

B32: KDR 958-973 peptide (peptide)
peptide: DLKRRLDSITSSQSSA-NH2
IC50 [5]: 22 µM
Ki [5]: 14 µM
IC50 [1]: 24 µM
Ki [1]: 8.9 µM

B34: MITF 256-271 peptide (peptide)
peptide: Ac-YVSGNLIDLYGNQGLP
IC50 [2]: 150 µM
Ki [2]: 63 µM

B36: MITF 256-271 peptide, Y265C (peptide)
peptide: Ac-YVSGNLIDLCGNQGLP
IC50 [2]: 220 µM
Ki [2]: 100 µM

B38: Integrin beta-3 763-778 peptide (peptide)
peptide: AKWDTANNPLYKEATS-NH2
IC50 [4]: 1430 µM
Ki [4]: 480 µM

B39: AFF2 864-879 peptide (peptide)
peptide: IPEKKQRLEEATTICL-NH2
IC50 [5]: 2.3 µM
Ki [5]: 1.5 µM
IC50 [1]: 3800 µM
Ki [1]: 1420 µM

The remaining lines, values ahead:

IC50 [3]: 0.31 µM
Ki [3]: 0.071 µM
B4: NFE2L2 77-91 peptide with an extra N-terminal Y, wild type (peptide)
peptide: Ac-YDEETGEFLPIQPAQH-NH2

IC50 [4]: 15 µM
Ki [4]: 4.9 µM
B5: TPTE 112-125 peptide (peptide)
peptide: DLIFTDSKLYIPLE-NH2

IC50 [3]: 44 µM
Ki [3]: 11 µM
B6: PAK1 88-103 peptide (peptide)
peptide: GFDAVTGEFTGMPEQW-NH2

IC50 [3]: 6.1 µM
Ki [3]: 1.5 µM
B7: PLEC 4459-4474 peptide (peptide)
peptide: IDPSTGERFPVTDAVN-NH2

IC50 [3]: 1.5 µM
Ki [3]: 0.49 µM
B9: PLEC 4457-4471 peptide with an extra C-terminal Y, wild type (peptide)
peptide: Ac-GIIDPSTGERFPVTDY-NH2

IC50 [4]: 0.42 µM
Ki [4]: 0.066 µM
B10: PIP5K1C 640-655 peptide, unlabelled (peptide)
peptide: FPTDERSWVYSPLHYS-NH2

IC50 [6]: 2200 µM
B13: RANBP3 11-26 peptide (peptide)
peptide: Ac-AYAPPVFVFQKDKGQK-NH2

IC50 [4]: 62 µM
Ki [4]: 20 µM
B17: NYAP1 542-557 peptide (peptide)
peptide: VGPLTPLWTYPATAAG-NH2

IC50 [5]: 2.2 µM
Ki [5]: 6.8 µM
B18: NKX2-5 192-207 peptide, wild type (peptide)
peptide: Ac-YKCKRQRQDQTLELVGL-NH2

IC50 [7]: 130 µM
B19: NUMB 616-630 peptide with an added N-terminal G (peptide)
peptide: GFEAQWAALENKSKQR

IC50 [3]: 3 µM
B20: PTTG1 4-19 peptide (peptide)
peptide: Ac-LIYVDKENGEPGTRVV-NH2

IC50 [1]: 0.41 µM
Ki [1]: 0.047 µM
B23: TPX2 312-327 peptide (peptide)
peptide: GKKRTFDETVSTYVPL-NH2

IC50 [1]: 2.4 µM
Ki [1]: 0.77 µM
B24: ZBED9 651-666 peptide (peptide)
peptide: STMKRKHDEIQRSLPV-NH2

IC50 [1]: 0.43 µM
Ki [1]: 0.054 µM
B29: ZMIZ2 264-279 peptide (peptide)
peptide: GVKRTYSEVYPGQQYL-NH2

IC50 [3]: 2540 µM
Ki [3]: 611 µM
B31: NFE2L2 77-91 peptide with an extra N-terminal Y, T80K (peptide)
peptide: Ac-YDEEKGEFLPIQPAQH-NH2

IC50 [5]: 0.24 µM
Ki [5]: 0.14 µM
B33: ZRANB3 571-586 peptide (peptide)
peptide: VEPETKRLKLAASEDH-NH2

IC50 [5]: 98 µM
Ki [5]: 63 µM
B35: NKX2-5 192-207 peptide, K194R (peptide)
peptide: Ac-YKCRRQRQDQTLELVGL-NH2

IC50 [7]: 9 µM
B37: RNF115 69-84 peptide (peptide)
peptide: THFAELWGHLDHTMFF

IC50 [1]: 3.6 µM
Ki [1]: 1.2 µM
B40: PLEKHG4B 1183-1198 peptide (peptide)
peptide: PFKRPHSTISDSSTSS-NH2

IC50 [6]: 49 µM
Ki [6]: 11 µM
B41: NUP153 1220-1234 peptide with an extra C-terminal Y (peptide)
peptide: Ac-NPPVATFVFGQSSNPY-NH2
